Assay results published in article PMC9467613 (mAbs, 2022).

These binders were tested against B7-H4 purified monomeric recombinant human protein (Homo sapiens, UniProt Q7Z7D3) (assay: SPR).
Sequence of B7-H4 purified monomeric recombinant human protein (Q7Z7D3 25-259): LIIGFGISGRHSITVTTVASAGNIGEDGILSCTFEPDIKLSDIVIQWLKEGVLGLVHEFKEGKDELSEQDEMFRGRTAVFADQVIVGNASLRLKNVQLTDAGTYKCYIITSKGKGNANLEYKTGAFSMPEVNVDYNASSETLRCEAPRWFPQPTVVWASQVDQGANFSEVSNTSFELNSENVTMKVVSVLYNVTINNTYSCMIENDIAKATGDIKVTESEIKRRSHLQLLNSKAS

Row | Kd [pM] | koff [s⁻¹] | kon [M⁻¹ s⁻¹] | Binder
1 | 224 | 3.7e-05 | 170000 | A01 (scFv, V domains shown) VH: EVQLVESGGGVVQPGRSLRLSCAASGFTFSNKAMNWVRQAPGKGLEWVSAISGSGATTYYADSVKGRFTISRDNSKNTLYLQMNSLRAEDTAVYYCARKRWYGMDVWGQGTTVTVSS VL: SYELTQPPSVSVAPGKTARITCGGNNIGSKSVHWYQQKPGQAPVLVVYDDSDRPSGIPERFSGSNSGNTATLTISRVEAGDEADYYCQVWDRGMIFGTGTKLTVL
2 | 54 | 1.8e-05 | 330000 | B07 (scFv, V domains shown) VH: EVQLVESGGGVVQPGRSLRLSCAASGFTFGDRAMNWVRQAPGKGLEWVSAISGSGATTYYADSVKGRFTISRDNSKNTLYLQMNSLRAEDTAVYYCARKRWYGMDVWGQGTTVTVSS VL: SYELTQPPSVSVAPGKTARITCGGNNIGSKSVHWYQQKPGQAPVLVVYDDSDRPSGIPERFSGSNSGNTATLTISRVEAGDEADYYCQVWDRGMIFGTGTKLTVL
3 | 68 | 1.2e-05 | 180000 | B11 (scFv, V domains shown) VH: EVQLVESGGGVVQPGRSLRLSCAASGFTFTSRAMNWVRQAPGKGLEWVSAISGSGATAYYADSVKGRFTISRDNSKNTLYLQMNSLRAEDTAVYYCARKRWYGMDVWGQGTTVTVSS VL: SYELTQPPSVSVAPGKTARITCGGNNIGSKSVHWYQQKPGQAPVLVVYDDSDRPSGIPERFSGSNSGNTATLTISRVEAGDEADYYCQVWDRGMIFGTGTKLTVL
4 | 70 | 2.1e-05 | 300000 | B03 (scFv, V domains shown) VH: EVQLVESGGGVVQPGRSLRLSCAASGFTFGDRAMNWVRQAPGKGLEWVSAISGSGSGTYYADSVKGRFTISRDNSKNTLYLQMNSLRAEDTAVYYCARKRWYGMDVWGQGTTVTVSS VL: SYELTQPPSVSVAPGKTARITCGGNNIGMKSVHWYQQKPGQAPVLVVYDDSDRPSGIPERFSGSNSGNTATLTISRVEAGDEADYYCQVWDRGMIFGTGTKLTVL
5 | 118 | 2.5e-05 | 210000 | B09 (scFv, V domains shown) VH: EVQLVESGGGVVQPGRSLRLSCAASGFTYSSRAMNWVRQAPGKGLEWVSAISSSGTTTYYADSVKGRFTISRDNSKNTLYLQMNSLRAEDTAVYYCARKRWYGMDVWGQGTTVTVSS VL: SYELTQPPSVSVAPGKTARITCGGNNIGSKSVHWYQQKPGQAPVLVVYDDSDRPSGIPERFSGSNSGNTATLTISRVEAGDEADYYCQVWDRGMIFGTGTKLTVL
6 | 277 | 4.7e-05 | 170000 | A07 (scFv, V domains shown) VH: EVQLVESGGGVVQPGRSLRLSCAASGFTFSSRSMNWVRQAPGKGLEWVSAISGSGSTVYYADSVKGRFTISRDNSKNTLYLQMNSLRAEDTAVYYCARKRWYGMDVWGQGTTVTVSS VL: SYELTQPPSVSVAPGKTARITCGGNNIGSKSVHWYQQKPGQAPVLVVYDDSDRPSGIPERFSGSNSGNTATLTISRVEAGDEADYYCQVWDSRTYVFGTGTKLTVL
7 | 43 | 1.3e-05 | 310000 | A08 (scFv, V domains shown) VH: EVQLVESGGGVVQPGRSLRLSCAASGFTFGDRAMNWVRQAPGKGLEWVSAISSSGTTSYYADSVKGRFTISRDNSKNTLYLQMNSLRAEDTAVYYCARKRWYGMDVWGQGTTVTVSS VL: SYELTQPPSVSVAPGKTARITCGGNNIGSKSVHWYQQKPGQAPVLVVYDDSDRPSGIPERFSGSNSGNTATLTISRVEAGDEADYYCQVWDRGMIFGTGTKLTVL
8 | 39 | 1.1e-05 | 280000 | A02 (scFv, V domains shown) VH: EVQLVESGGGVVQPGRSLRLSCAASGFTFTSRAMNWVRQAPGKGLEWVSAISYEGRTQYYADSVKGRFTISRDNSKNTLYLQMNSLRAEDTAVYYCARKRWYGMDVWGQGTTVTVSS VL: SYELTQPPSVSVAPGKTARITCGGNNIGSKSVHWYQQKPGQAPVLVVYDDSDRPSGIPERFSGSNSGNTATLTISRVEAGDEADYYCQVWDRGMIFGTGTKLTVL
9 | 97 | 1.7e-05 | 170000 | B06 (scFv, V domains shown) VH: EVQLVESGGGVVQPGRSLRLSCAASGFTFSNKAMNWVRQAPGKGLEWVSAISGSGATTYYADSVKGRFTISRDNSKNTLYLQMNSLRAEDTAVYYCARKRWYGMDVWGQGTTVTVSS VL: SYELTQPPSVSVAPGKTARITCGGNNIGVKAVHWYQQKPGQAPVLVVYDDSDRPSGIPERFSGSNSGNTATLTISRVEAGDEADYYCQVWDRGMIFGTGTKLTVL
10 | 117 | 2.2e-05 | 190000 | A05 (scFv, V domains shown) VH: EVQLVESGGGVVQPGRSLRLSCAASGFTYSSRAMNWVRQAPGKGLEWVSAISGSGSNAYYADSVKGRFTISRDNSKNTLYLQMNSLRAEDTAVYYCARKRWYGMDVWGQGTTVTVSS VL: SYELTQPPSVSVAPGKTARITCGGNNIGSKSVHWYQQKPGQAPVLVVYDDSDRPSGIPERFSGSNSGNTATLTISRVEAGDEADYYCQVWDRGMIFGTGTKLTVL
11 | 60 | 1.1e-05 | 190000 | A11 (scFv, V domains shown) VH: EVQLVESGGGVVQPGRSLRLSCAASGFTFSSRSMNWVRQAPGKGLEWVSAISGSGSTVYYADSVKGRFTISRDNSKNTLYLQMNSLRAEDTAVYYCARKRWYGMDVWGQGTTVTVSS VL: SYELTQPPSVSVAPGKTARITCGGNNIGSKSVHWYQQKPGQAPVLVVYDDSDRPSGIPERFSGSNSGNTATLTISRVEAGDEADYYCQVWDRGMIFGTGTKLTVL
12 | 103 | 1.4e-05 | 140000 | A10 (scFv, V domains shown) VH: EVQLVESGGGVVQPGRSLRLSCAASGFTFSSRSMNWVRQAPGKGLEWVSAISGTGYTTYYADSVKGRFTISRDNSKNTLYLQMNSLRAEDTAVYYCARKRWYGMDVWGQGTTVTVSS VL: SYELTQPPSVSVAPGKTARITCGGNNIGSKSVHWYQQKPGQAPVLVVYDDSDRPSGIPERFSGSNSGNTATLTISRVEAGDEADYYCQVWDRGMIFGTGTKLTVL
13 | 69 | 2.1e-05 | 310000 | A04 (scFv, V domains shown) VH: EVQLVESGGGVVQPGRSLRLSCAASGFTFSSRSMNWVRQAPGKGLEWVSAISGSGDTTYYADSVKGRFTISRDNSKNTLYLQMNSLRAEDTAVYYCARKRWYGMDVWGQGTTVTVSS VL: SYELTQPPSVSVAPGKTARITCGGNNIGSKSVHWYQQKPGQAPVLVVYDDSDRPSGIPERFSGSNSGNTATLTISRVEAGDEADYYCQVWDRGMIFGTGTKLTVL
14 | 172 | 2.7e-05 | 160000 | B04 (scFv, V domains shown) VH: EVQLVESGGGVVQPGRSLRLSCAASGFSFSSRAMNWVRQAPGKGLEWVSAVSGSGSGTYYADSVKGRFTISRDNSKNTLYLQMNSLRAEDTAVYYCARKRWYGMDVWGQGTTVTVSS VL: SYELTQPPSVSVAPGKTARITCGGNNIGLKSVHWYQQKPGQAPVLVVYDDSDRPSGIPERFSGSNSGNTATLTISRVEAGDEADYYCQVWDRGMIFGTGTKLTVL
15 | 74 | 1.1e-05 | 160000 | A09 (scFv, V domains shown) VH: EVQLVESGGGVVQPGRSLRLSCAASGFTFSSRSMNWVRQAPGKGLEWVSAISGSGLTSYYADSVKGRFTISRDNSKNTLYLQMNSLRAEDTAVYYCARKRWYGMDVWGQGTTVTVSS VL: SYELTQPPSVSVAPGKTARITCGGNNIGSKSVHWYQQKPGQAPVLVVYDDSDRPSGIPERFSGSNSGNTATLTISRVEAGDEADYYCQVWDRGMIFGTGTKLTVL
16 | 59 | 1.1e-05 | 180000 | B02 (scFv, V domains shown) VH: EVQLVESGGGVVQPGRSLRLSCAASGFTFSSRSMNWVRQAPGKGLEWVSAISGSGSTVYYADSVKGRFTISRDNSKNTLYLQMNSLRAEDTAVYYCARKRWYGMDVWGQGTTVTVSS VL: SYELTQPPSVSVAPGKTARITCGGNNIGVKSVHWYQQKPGQAPVLVVYDDSDRSPGIPERFSGSNSGNTATLTISRVEAGDEADYYCQVWDSRTYVFGTGTKLTVL
17 | 116 | 2.9e-05 | 260000 | B10 (scFv, V domains shown) VH: EVQLVESGGGVVQPGRSLRLSCAASGFTFSTRAMNWVRQAPGKGLEWVSAISGTGDTTYYADSVKGRFTISRDNSKNTLYLQMNSLRAEDTAVYYCARKRWYGMDVWGQGTTVTVSS VL: SYELTQPPSVSVAPGKTARITCGGNNIGSKSVHWYQQKPGQAPVLVVYDDSDRPSGIPERFSGSNSGNTATLTISRVEAGDEADYYCQVWGRYQMIFGTGTKLTVL
18 | 139 | 3.2e-05 | 230000 | A12 (scFv, V domains shown) VH: EVQLVESGGGVVQPGRSLRLSCAASGFTFDNRAMNWVRQAPGKGLEWVSAISSSGSTMYYADSVKGRFTISRDNSKNTLYLQMNSLRAEDTAVYYCARKRWYGMDVWGQGTTVTVSS VL: SYELTQPPSVSVAPGKTARITCGGNNIGSKSVHWYQQKPGQAPVLVVYDDSDRPSGIPERFSGSNSGNTATLTISRVEAGDEADYYCQVWDSRTYVFGTGTKLTVL
19 | 117 | 1.8e-05 | 150000 | B08 (scFv, V domains shown) VH: EVQLVESGGGVVQPGRSLRLSCAASGFTFSDRAMNWVRQAPGKGLEWVSAISASGASRYYADSVKGRFTISRDNSKNTLYLQMNSLRAEDTAVYYCARKRWYGMDVWGQGTTVTVSS VL: SYELTQPPSVSVAPGKTARITCGGNNIGSKSVHWYQQKPGQAPVLVVYDDSDRPSGIPERFSGSNSGNTATLTISRVEAGDEADYYCQVWDRGMIFGTGTKLTVL
20 | 84 | 2.8e-05 | 340000 | B12 (scFv, V domains shown) VH: EVQLVESGGGVVQPGRSLRLSCAASGFTFSDRAMNWVRQAPGKGLEWVSAISGTGASTYYADSVKGRFTISRDNSKNTLYLQMNSLRAEDTAVYYCARKRWYGMDVWGQGTTVTVSS VL: SYELTQPPSVSVAPGKTARITCGGNNIGSKSVHWYQQKPGQAPVLVVYDDSDRPSGIPERFSGSNSGNTATLTISRVEAGDEADYYCQVWDRGMIFGTGTKLTVL
